Assay [1] has as its target T1, Human plasmin (human, UniProt P00747 97-810).
T1 construct: mature
Briefly: comparison of Table 3 Ki values; reference aprotinin (Willmott et al., 1995).

Assay [2] addresses T1, Human plasmin. Nature of the assay: progress curves of S-2251 hydrolysis, 2 nM plasmin, n = 6, global fit to Eq. 1-3.
Assay [3] has as its target T1, Human plasmin. Nature of the assay: progress curves of S-2251 hydrolysis, 18 nM plasmin, n = 6, global fit to Eq. 1-3.
Assay [4] concerns the target T1, Human plasmin. Nature of the assay: plasmin inhibition kinetics (kinetic profile).

The results in this text go back to patent publication US7070969 (UNIVERSITY OF QUEENSLAND, dated 2006).

Numbering of substitutions follows the chain as printed.

T1 sequence (P00747 97-810): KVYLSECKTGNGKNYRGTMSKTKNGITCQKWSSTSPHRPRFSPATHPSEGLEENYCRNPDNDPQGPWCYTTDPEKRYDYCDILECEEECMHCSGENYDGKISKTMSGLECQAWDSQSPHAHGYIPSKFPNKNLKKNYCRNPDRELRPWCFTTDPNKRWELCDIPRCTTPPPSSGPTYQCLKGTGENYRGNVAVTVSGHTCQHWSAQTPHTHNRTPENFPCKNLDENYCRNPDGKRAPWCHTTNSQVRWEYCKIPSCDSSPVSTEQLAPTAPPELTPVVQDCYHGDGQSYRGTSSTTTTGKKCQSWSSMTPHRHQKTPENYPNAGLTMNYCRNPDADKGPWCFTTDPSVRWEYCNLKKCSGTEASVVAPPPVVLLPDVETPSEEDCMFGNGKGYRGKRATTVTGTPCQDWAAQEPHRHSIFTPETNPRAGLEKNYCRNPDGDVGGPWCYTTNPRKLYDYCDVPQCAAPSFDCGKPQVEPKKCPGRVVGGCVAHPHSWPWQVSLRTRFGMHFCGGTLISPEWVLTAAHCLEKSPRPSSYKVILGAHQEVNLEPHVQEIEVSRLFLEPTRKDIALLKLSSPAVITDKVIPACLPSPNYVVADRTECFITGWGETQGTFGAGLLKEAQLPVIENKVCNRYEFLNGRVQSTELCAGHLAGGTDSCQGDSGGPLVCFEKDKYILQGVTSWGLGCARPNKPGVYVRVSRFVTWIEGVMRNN

B1: Textilinin 1 (other)
chain: KDRPDFCELPADTGPCRVRFPSFYYNPDEKKCLEFIYGGCEGNANNFITKEECESTCAA
notes: also called Txln 1
Regarding B1, the “fold difference of Ki against aprotinin” value in assay [1] is about 100 fold. For the same molecule, the Ki was determined as 3.5 nM in assay [2] and 2.6 nM in assay [3].

B2: Textilinin 2 (other)
chain: B1 chain with D5E, F6L, A11P, K30Q
notes: also called Txln 2
With B2, the Ki in assay [4] came to 2 nM; in assay [2], 2.2 nM; in assay [3] it was 2.8 nM. Moreover, the “fold difference of Ki against aprotinin” value in assay [1] is about 100 fold.

In general, Ki refers to the equilibrium dissociation constant of an inhibitor or competing ligand from its target.
